Results published in patent US20170369523A1, “TEMPLATE-FIXED BETA-HAIRPIN PEPTIDOMIMETICS THAT ARE LIGANDS FOR G-PROTEIN-COUPLED RECEPTORS (GPCRS) AND ARE MODULATORS OF TRANSCRIPTION FACTORS AND COACTIVATORS” (POLYPHOR AG, priority 2008, published 2017).
Numbered stars: 1 amine (or outer) side, 2 acyl side, 3 side chain; on linkers, the order of the positions; unused ones are H or OH. Square brackets hold non-standard residues; d marks the D form. Glu(cHx) = L-glutamic acid cyclohexyl ester, O=C(CC[C@H](N[*:1])C(=O)[*:2])OC1CCCCC1; Trp(6-Cl) = N[C@@H](Cc1c[nH]c2cc(Cl)ccc12)C(=O)O; Hyp = O=C(O)[C@@H]1C[C@@H](O)CN1

T1: NCoA-1 (UniProt Q15788 257-385, limits assumed)
T1 construct: also called SRC-1
T1 sequence (looked up): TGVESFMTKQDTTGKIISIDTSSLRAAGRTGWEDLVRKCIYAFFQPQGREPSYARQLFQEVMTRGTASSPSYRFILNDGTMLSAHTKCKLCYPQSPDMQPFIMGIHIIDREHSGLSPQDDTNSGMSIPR

B1: Ex. 9 (peptide)
peptide: cyclo(FEWLAWE[Glu(cHx)][dP]P)
SMILES: CC(C)C[C@@H]1NC(=O)[C@H](Cc2c[nH]c3ccccc23)NC(=O)[C@H](CCC(=O)O)NC(=O)[C@H](Cc2ccccc2)NC(=O)[C@@H]2CCCN2C(=O)[C@H]2CCCN2C(=O)[C@H](CCC(=O)OC2CCCCC2)NC(=O)[C@H](CCC(=O)O)NC(=O)[C@H](Cc2c[nH]c3ccccc23)NC(=O)[C@H](C)NC1=O
notes: cyclo(-P1..P8-template-)
B2: Ex. 14 (peptide)
peptide: cyclo(FA[Trp(6-Cl)]LDWEF[dP]P)
SMILES: CC(C)C[C@@H]1NC(=O)[C@H](Cc2c[nH]c3cc(Cl)ccc23)NC(=O)[C@H](C)NC(=O)[C@H](Cc2ccccc2)NC(=O)[C@@H]2CCCN2C(=O)[C@H]2CCCN2C(=O)[C@H](Cc2ccccc2)NC(=O)[C@H](CCC(=O)O)NC(=O)[C@H](Cc2c[nH]c3ccccc23)NC(=O)[C@H](CC(=O)O)NC1=O
notes: cyclo(-P1..P8-template-)
B3: Ex. 13 (peptide)
peptide: cyclo(FE[Trp(6-Cl)]LDWAF[dP]P)
SMILES: CC(C)C[C@@H]1NC(=O)[C@H](Cc2c[nH]c3cc(Cl)ccc23)NC(=O)[C@H](CCC(=O)O)NC(=O)[C@H](Cc2ccccc2)NC(=O)[C@@H]2CCCN2C(=O)[C@H]2CCCN2C(=O)[C@H](Cc2ccccc2)NC(=O)[C@H](C)NC(=O)[C@H](Cc2c[nH]c3ccccc23)NC(=O)[C@H](CC(=O)O)NC1=O
notes: cyclo(-P1..P8-template-)
B4: Ex. 2 (peptide)
peptide: cyclo(FEWLAWEF[dP][Hyp])
SMILES: CC(C)C[C@@H]1NC(=O)[C@H](Cc2c[nH]c3ccccc23)NC(=O)[C@H](CCC(=O)O)NC(=O)[C@H](Cc2ccccc2)NC(=O)[C@@H]2C[C@@H](O)CN2C(=O)[C@H]2CCCN2C(=O)[C@H](Cc2ccccc2)NC(=O)[C@H](CCC(=O)O)NC(=O)[C@H](Cc2c[nH]c3ccccc23)NC(=O)[C@H](C)NC1=O
notes: cyclo(-P1..P8-template-)
B5: Ex. 16 (peptide)
peptide: cyclo(FEWLDWEM[dP]P)
SMILES: CSCC[C@@H]1NC(=O)[C@H](CCC(=O)O)NC(=O)[C@H](Cc2c[nH]c3ccccc23)NC(=O)[C@H](CC(=O)O)NC(=O)[C@H](CC(C)C)NC(=O)[C@H](Cc2c[nH]c3ccccc23)NC(=O)[C@H](CCC(=O)O)NC(=O)[C@H](Cc2ccccc2)NC(=O)[C@@H]2CCCN2C(=O)[C@H]2CCCN2C1=O
notes: cyclo(-P1..P8-template-)
B6: Ex. 24 (peptide)
peptide: cyclo(FEWLAWLF[dP]P)
SMILES: CC(C)C[C@@H]1NC(=O)[C@H](Cc2c[nH]c3ccccc23)NC(=O)[C@H](CCC(=O)O)NC(=O)[C@H](Cc2ccccc2)NC(=O)[C@@H]2CCCN2C(=O)[C@H]2CCCN2C(=O)[C@H](Cc2ccccc2)NC(=O)[C@H](CC(C)C)NC(=O)[C@H](Cc2c[nH]c3ccccc23)NC(=O)[C@H](C)NC1=O
notes: cyclo(-P1..P8-template-)
B7: Ex. 8 (peptide)
peptide: cyclo(FEWLGWEF[dP]P)
SMILES: CC(C)C[C@@H]1NC(=O)[C@H](Cc2c[nH]c3ccccc23)NC(=O)[C@H](CCC(=O)O)NC(=O)[C@H](Cc2ccccc2)NC(=O)[C@@H]2CCCN2C(=O)[C@H]2CCCN2C(=O)[C@H](Cc2ccccc2)NC(=O)[C@H](CCC(=O)O)NC(=O)[C@H](Cc2c[nH]c3ccccc23)NC(=O)CNC1=O
notes: cyclo(-P1..P8-template-)
B8: Ex. 27 (peptide)
peptide: cyclo(MEWLDWEF[dP]P)
SMILES: CSCC[C@@H]1NC(=O)[C@@H]2CCCN2C(=O)[C@H]2CCCN2C(=O)[C@H](Cc2ccccc2)NC(=O)[C@H](CCC(=O)O)NC(=O)[C@H](Cc2c[nH]c3ccccc23)NC(=O)[C@H](CC(=O)O)NC(=O)[C@H](CC(C)C)NC(=O)[C@H](Cc2c[nH]c3ccccc23)NC(=O)[C@H](CCC(=O)O)NC1=O
notes: cyclo(-P1..P8-template-)
B9: Ex. 11 (peptide)
peptide: cyclo(FEWYAWEF[dP]P)
SMILES: C[C@@H]1NC(=O)[C@H](Cc2ccc(O)cc2)NC(=O)[C@H](Cc2c[nH]c3ccccc23)NC(=O)[C@H](CCC(=O)O)NC(=O)[C@H](Cc2ccccc2)NC(=O)[C@@H]2CCCN2C(=O)[C@H]2CCCN2C(=O)[C@H](Cc2ccccc2)NC(=O)[C@H](CCC(=O)O)NC(=O)[C@H](Cc2c[nH]c3ccccc23)NC1=O
notes: cyclo(-P1..P8-template-)
B10: Ex. 22 (peptide)
peptide: cyclo(FLWLAWEF[dP]P)
SMILES: CC(C)C[C@@H]1NC(=O)[C@H](Cc2c[nH]c3ccccc23)NC(=O)[C@H](CC(C)C)NC(=O)[C@H](Cc2ccccc2)NC(=O)[C@@H]2CCCN2C(=O)[C@H]2CCCN2C(=O)[C@H](Cc2ccccc2)NC(=O)[C@H](CCC(=O)O)NC(=O)[C@H](Cc2c[nH]c3ccccc23)NC(=O)[C@H](C)NC1=O
notes: cyclo(-P1..P8-template-)
B11: Ex. 23 (peptide)
peptide: cyclo(EEWLAWEF[dP]P)
SMILES: CC(C)C[C@@H]1NC(=O)[C@H](Cc2c[nH]c3ccccc23)NC(=O)[C@H](CCC(=O)O)NC(=O)[C@H](CCC(=O)O)NC(=O)[C@@H]2CCCN2C(=O)[C@H]2CCCN2C(=O)[C@H](Cc2ccccc2)NC(=O)[C@H](CCC(=O)O)NC(=O)[C@H](Cc2c[nH]c3ccccc23)NC(=O)[C@H](C)NC1=O
notes: cyclo(-P1..P8-template-)
B12: Ex. 19 (peptide)
peptide: cyclo(FEWLDWEF[dP]P)
SMILES: CC(C)C[C@@H]1NC(=O)[C@H](Cc2c[nH]c3ccccc23)NC(=O)[C@H](CCC(=O)O)NC(=O)[C@H](Cc2ccccc2)NC(=O)[C@@H]2CCCN2C(=O)[C@H]2CCCN2C(=O)[C@H](Cc2ccccc2)NC(=O)[C@H](CCC(=O)O)NC(=O)[C@H](Cc2c[nH]c3ccccc23)NC(=O)[C@H](CC(=O)O)NC1=O
notes: cyclo(-P1..P8-template-)
B13: Ex. 21 (peptide)
peptide: cyclo(FEWLAWYF[dP]P)
SMILES: CC(C)C[C@@H]1NC(=O)[C@H](Cc2c[nH]c3ccccc23)NC(=O)[C@H](CCC(=O)O)NC(=O)[C@H](Cc2ccccc2)NC(=O)[C@@H]2CCCN2C(=O)[C@H]2CCCN2C(=O)[C@H](Cc2ccccc2)NC(=O)[C@H](Cc2ccc(O)cc2)NC(=O)[C@H](Cc2c[nH]c3ccccc23)NC(=O)[C@H](C)NC1=O
notes: cyclo(-P1..P8-template-)
B14: Ex. 12 (peptide)
peptide: cyclo(FEWLYWEF[dP]P)
SMILES: CC(C)C[C@@H]1NC(=O)[C@H](Cc2c[nH]c3ccccc23)NC(=O)[C@H](CCC(=O)O)NC(=O)[C@H](Cc2ccccc2)NC(=O)[C@@H]2CCCN2C(=O)[C@H]2CCCN2C(=O)[C@H](Cc2ccccc2)NC(=O)[C@H](CCC(=O)O)NC(=O)[C@H](Cc2c[nH]c3ccccc23)NC(=O)[C@H](Cc2ccc(O)cc2)NC1=O
notes: cyclo(-P1..P8-template-)
B15: Ex. 20 (peptide)
peptide: cyclo(FEWLAWEE[dP]P)
SMILES: CC(C)C[C@@H]1NC(=O)[C@H](Cc2c[nH]c3ccccc23)NC(=O)[C@H](CCC(=O)O)NC(=O)[C@H](Cc2ccccc2)NC(=O)[C@@H]2CCCN2C(=O)[C@H]2CCCN2C(=O)[C@H](CCC(=O)O)NC(=O)[C@H](CCC(=O)O)NC(=O)[C@H](Cc2c[nH]c3ccccc23)NC(=O)[C@H](C)NC1=O
notes: cyclo(-P1..P8-template-)
B16: Ex. 7 (peptide)
peptide: cyclo(FEWGAWEF[dP]P)
SMILES: C[C@@H]1NC(=O)CNC(=O)[C@H](Cc2c[nH]c3ccccc23)NC(=O)[C@H](CCC(=O)O)NC(=O)[C@H](Cc2ccccc2)NC(=O)[C@@H]2CCCN2C(=O)[C@H]2CCCN2C(=O)[C@H](Cc2ccccc2)NC(=O)[C@H](CCC(=O)O)NC(=O)[C@H](Cc2c[nH]c3ccccc23)NC1=O
notes: cyclo(-P1..P8-template-)
B17: Ex. 17 (peptide)
peptide: cyclo(FEALDWEF[dP]P)
SMILES: CC(C)C[C@@H]1NC(=O)[C@H](C)NC(=O)[C@H](CCC(=O)O)NC(=O)[C@H](Cc2ccccc2)NC(=O)[C@@H]2CCCN2C(=O)[C@H]2CCCN2C(=O)[C@H](Cc2ccccc2)NC(=O)[C@H](CCC(=O)O)NC(=O)[C@H](Cc2c[nH]c3ccccc23)NC(=O)[C@H](CC(=O)O)NC1=O
notes: cyclo(-P1..P8-template-)
B18: Ex. 18 (peptide)
peptide: cyclo(FE[Trp(6-Cl)]LDAEF[dP]P)
SMILES: CC(C)C[C@@H]1NC(=O)[C@H](Cc2c[nH]c3cc(Cl)ccc23)NC(=O)[C@H](CCC(=O)O)NC(=O)[C@H](Cc2ccccc2)NC(=O)[C@@H]2CCCN2C(=O)[C@H]2CCCN2C(=O)[C@H](Cc2ccccc2)NC(=O)[C@H](CCC(=O)O)NC(=O)[C@H](C)NC(=O)[C@H](CC(=O)O)NC1=O
notes: cyclo(-P1..P8-template-)

biological target: T1, NCoA-1; assay: competition fluorescence polarization; displacement of FluoSTAT6 from NCoA-1
Procedure: The mixtures were shaken thoroughly. Fluorescence polarization was measured on a SPECTRAmax M5 spectrometer (Molecular device) following 5-30 min incubation at room temperature. FluoSTAT6 was excited at 490 nm and emission polarization was detected at 525 nm. 40 intensity measurements were collected for each well, 20 at horizontal position of the dynamic polarizer, 20 at parallel position. As the fraction of FluoSTAT6 bound to NCoA-1 is correlated to the fluorescence polarization (FP), after normalization, the fraction of bound FluoSTAT6 (B) was determined, and the KD was calculated according to B=[(1+P/R+KD/R)−((1+P/R+KD/R)²−4P/R)^{0.5}]/2, wherein P is the total probe concentration, R the total protein concentration and KD the dissociation constant (M. H. Roehrl, J. Y. Wang, G. Wagner, Biochemistry 2004, 3, 16056).
To determine the Kᵢ values of potential inhibitors of the STAT6/NCoA-1 interaction (competition fluorescence polarization) the compounds (dilution series from 0 to 100 μM final concentration) dissolved in HEPES buffer (10 mM HEPES, 150 mM NaCl, 3.4 mM EDTA, 0.1% BSA) were dispensed in a black 96 well plate (Greiner) and FluoSTAT6 (200 nM final concentration) in HEPES buffer was added. The mixture was completed by a HEPES buffer solution of NCoA-1 (1 μM final concentration) and processed as described above. STAT6Y (C-terminal tyrosine extended STAT6 794-814 peptide) was used as a positive control. As the total fluorescence intensity of FluoSTAT6 remains similar for all samples, the fraction of peptide bound to NCoA-1 is correlated to the fluorescence polarization.
Following normalization data were fitted with IGORpro Software® (WaveMetrics, Lake Oswego, Oreg., USA) to a sigmoid equation to determine IC₅₀ values.

Row | Ki | Binder
1 | 1.5 µM | B1
2 | 1.4 µM | B2
3 | 2 µM | B3
4 | 4.7 µM | B4
5 | 6.6 µM | B5
6 | 24.3 µM | B6
7 | 3 µM | B7
8 | 7.9 µM | B8
9 | 8.7 µM | B9
10 | 8.9 µM | B10
11 | 16.4 µM | B11
12 | 3.7 µM | B12
13 | 19.6 µM | B13
14 | 9.3 µM | B14
15 | 11.5 µM | B15
16 | 7.1 µM | B16
17 | 15.8 µM | B17
18 | 3.3 µM | B18
